The assay has as its target Fc receptor on THP-1 cells. Put plainly: cell-based or functional assay.

Bounds are passed on as bounds.

Regarding “human IgG1 (heat aggregated, plate coated) (antibody)”, the TNF secretion by THP-1 cells on wells coated with 10 ug/well heat aggregated protein was above 40 ng/well.
